The values below come from patent US20240043505A1 (UNIVERSITY OF PITTSBURGH OF THE COMMONWEALTH SYSTEM OF …, published 2024).

To fix the notation:
B1: Nb3 (VHH)
VHH: HVQLVESGGGLVQAGGSLRLSCVASGSGFEPNAMGWYRQAPGKQRELVAGITSGGNTNYADSVKGRFTISRDNVKNTVYLQMNSLKPEDTAVYYCNAVAPRINPRGSPTNYWGQGTQVTVSS
B2: Nb4 (VHH)
VHH: B1 VHH with H1Q, T57A, A99G, I102F
B3: Nb24 (VHH)
VHH: QVQLVESGGGLVQAGGSLRLTCAASGGTFSTSTMDMGWFRQAPGKEREFVALDSWNGGRTYYADSVKGRFTISRDNAKNTLYLQMNSLKPEDTAVYYCAADTYSNYEKDDSWGYWGQGTQVTVSS
B4: Nb26 (VHH)
VHH: B3 VHH with Q1H, G27R, T31I, L52A, S54A, G57D, A99T, E107K
B5: Nb28 (VHH)
VHH: B3 VHH with Q1H, T21S, G27R, A51G, L52A, G57D, S87N, D101E, N105L, D109S
B6: Nb32 (VHH)
VHH: DVQLVESGGGLVQAGGSLRLSCAASGRTFSSDTMDMGWFRQAPGKEREFVALHSWNGGKTYYADSVKGRFTISRDNAKNTLYLQMNNLKPEDTAVYYCAAETYTLYEKDSSWGYWGQGTQVTVSS
B7: Nb29 (VHH)
VHH: B3 VHH with Q1H, L52V, G57D, T60A, D101E, D109A, D110Y
B8: Nb2 (VHH)
VHH: QVQLVESGGGLVQAGGSLRLSCAASGRTFSIYNMGWFRQAPGKEREFVIHMNWSNGNTATAASVKDRFTISRDNAKNTVYLQMSSLKPEDTAVYYCHATTNDYDYWGQGTQVTVSS
B9: Nb15 (VHH)
VHH: EVQLVESGGGLVAAGGSLRLSCVPSTNIFSANAMGWYRQAPGKQRELVASITSGGNTNYADSVKGRFTISRDNADTVILQMNSLKPEDTAVYYCKGTAYSTTYNSVRDYWGQGTQVTVSS
B10: Nb18 (VHH)
VHH: DVQLVESGGGLVQAGGSLRLSCAASGRTFSSYNVGWFRQAPGKEREFVAFIRWSGTSTYYADSVKGRFTISRDNAKNTVYLQMNSLKPEDTAVYYCAATSRTMIHTSQAMPINWDYWGQGTQVTVSS
B11: Nb84 (VHH)
VHH: B10 VHH with N33S, V34M, E89D, T99S, I104N, H105T, T106I, A109T, P111R
B12: Nb100 (VHH)
VHH: B10 VHH with D1E, R27L, V34M, N74T, P88L, A109T, P111R
B13: Nb37 (VHH)
VHH: QVQLVESGGGLVQTGGSLRLSCAASGRTFSNYVMGWFRQAPGKEREFVSSIEWNSENTFYANSVKGRFTISRDNAKNTVYLQMNSLKAEDTAVYYCAADRGSSYYYTRASEYTYWGQGTQVTVSS
B14: Nb16 (VHH)
VHH: DVQLVESGGGLVQAGESLRLSCAASGDMFSSNAMAWYRQAPGKQRELVASITSGGNTNYADSVKGRFTISRDNAKNTVYLQMDSLKPEDTAVYYCNGVAYDYSWGRPRNFWGQGTQVTVSS
B15: Nb41 (VHH)
VHH: DVQLVESGGGLVQAGGSLRLSCAASGFTFSNYVMYWGRQAPGKGREWVSGIDSDGSDTAYASSVKGRFTISRDNAKKTLYLQMNDLKPEDTALYYCVKSKDRYGSPWTRSEFEDYWGQGTQVTVSS

The term IC50 denotes the midpoint of a concentration-inhibition curve. A higher IC50 goes with weaker potency.

Where a chain is given by its changes, count along the chain named.

The test concerns the target SARS-CoV-2 spike receptor-binding domain (RBD) (SARS-CoV-2, UniProt P0DTC2 319-541). Briefly: indirect ELISA on coated RBD ('ELISA affinity'). In general terms: An ELISA detects its analyte on a solid surface through an enzyme-linked reagent.
B1 gave an IC50 of 480 pM.

Regarding B2, the concentration for half-maximal inhibition (IC50) came to 670 pM.

B3 returned an IC50 of 770 pM.

Consider B4, for which the IC50 stood at 920 pM.

Molecule B5 registered an IC50 of 920 pM.

B6 came in with an IC50 of 2170 pM.

B7 yielded an IC50 of 1250 pM.

For the molecule B8, the IC50 amounted to 4820 pM.

Molecule B9 yielded an IC50 of 470 pM.

The molecule B10 displayed an IC50 of 570 pM.

Molecule B11 registered an IC50 of 530 pM.

Turning to B12, the IC50 amounted to 1040 pM.

Regarding B13, the IC50 was 380 pM.

In the case of B14, the IC50 was determined as 370 pM.

Consider B15, for which the IC50 was found to be 200 pM.
